Earlier results, collected in patent US10888616B2 (Latitude Pharmaceuticals, Inc., priority 2015, dated 2021).

Assays:
[1] = acidic solution (pH 2-4), within 24 hours at 37° C.

Glucagon: single-chain polypeptide of 29 amino acid residues, sequence in FIG. 1 (SEQ ID NO: 1)
solubility in pure water or alcohol: insoluble | gelling in water (pH 3 or lower): will aggregate to form a gel within hours | solubility in water (physiological pH (pH 4-8)): insoluble | glucagon broken down into degradation products [1]: 5-70%
